The values that follow come from paper PMC3523363 (Journal of medicinal chemistry, 2012).

One data set in a line: Spectroscopic studies. It counts as physicochemical. The conditions noted are these: in DMF; for фF (fluorescence quantum yield): calculated using ZnPc (Фf = 0.17) as the standard; for Emission: excitation at 670 nm.
The test system of a further data set is A431 s.c. tumors. Kind of data set: In vivo near-IR fluorescence imaging of s.c. tumor xenografts. Also noted: species or system nude mice. The following applies: 10 mg/kg iv, up to 96 h.
A further data set concerns Vero cells. Kind of data set: Phototoxicity, Cell Titer Blue assay. It counts as cell-based, cercopithecus aethiops. The following applies: 24 h.
For another data set, the system named is A431 cells. Kind of data set: Phototoxicity, Cell Titer Blue assay. Type of data set: cell-based, human. The conditions noted are these: 24 h. A general note: Alamar Blue is a resazurin reagent that responds to reducing activity.
In the next data set the test system is HEp2 cells. Kind of data set: Phototoxicity, Cell Titer Blue assay. It counts as cell-based, human. The following applies: 24 h.
Another data set deals with HT-29 cells. Kind of data set: Phototoxicity, Cell Titer Blue assay. The conditions noted are these: 24 h. It counts as cell-based, human.
The subject of another data set is HT-29 s.c. tumors. Kind of data set: In vivo near-IR fluorescence imaging of s.c. tumor xenografts. Also noted: species or system nude mice. The conditions noted are these: HT-29 s.c. tumor, 10 mg/kg iv, up to 96 h.
For another data set, the target named is EGFR (Homo sapiens, UniProt P00533). Kind of data set: Surface plasmon resonance. The following applies: EGFR immobilized on CM5 chip, 25 °C. Type of data set: binding. (In SPR one partner is held on a chip, and binding of the other changes the refractive index at the surface.)
The conditions of data set [1]: in DMF; cited from earlier work.

Some results are limits rather than exact numbers.

Usually IC50 stands for the concentration that gives 50% inhibition. Higher therefore signals weaker potency. In turn, `CC(C)C[C@H](NC(=O)CCOCCOCCOCCNC(=O)COCC(=O)Nc1ccc(Oc2ccc3c4nc5nc(nc6[nH]c(nc7nc(nc([nH]4)c3c2)-c2cc(C(C)(C)C)ccc2-7)c2ccc(C(C)(C)C)cc62)-c2ccc(C(C)(C)C)cc2-5)cc1)C(=O)N[C@@H](C)C(=O)N[C@@H](CCCNC(=N)N)C(=O)N[C@@H](CC(C)C)C(=O)N[C@@H](CC(C)C)C(=O)N[C@H](C(N)=O)[C@@H](C)O` [Pc 5b] came in with a ε in the data set “Spectroscopic studies” of 5.27 M⁻¹ cm⁻¹. The “фF (fluorescence quantum yield)” value in the data set “Spectroscopic studies” was 0.11. This molecule yielded an Emission in “Spectroscopic studies” of 682 nm. The entries for the “course of tumor fluorescence signal” value in the data set on A431 s.c. tumors and in the data set on HT-29 s.c. tumors were “continued to increase to 96 h” and “declined from 24 to 96 h”, respectively. In addition, the IC50 in the data set on Vero cells, with A431 cells, with HEp2 cells and with HT-29 cells was more than 100 µM throughout.
GYHWYGYTPQNVI [EGFR-L2]: in the data set with EGFR, the “relative binding affinity to EGFR (SPR)” value is reported as “higher affinity for EGFR than EGFR-L1”.
On to `CC[C@H](C)[C@H](NC(=O)[C@@H](NC(=O)[C@H](CC(N)=O)NC(=O)[C@H](CCC(N)=O)NC(=O)[C@@H]1CCCN1C(=O)[C@@H](NC(=O)[C@H](Cc1ccc(O)cc1)NC(=O)CNC(=O)[C@H](Cc1ccc(O)cc1)NC(=O)[C@H](Cc1c[nH]c2ccccc12)NC(=O)[C@H](Cc1c[nH]cn1)NC(=O)[C@H](Cc1ccc(O)cc1)NC(=O)CNC(=O)COCC(=O)Nc1ccc(Oc2ccc3c4nc5nc(nc6[nH]c(nc7nc(nc([nH]4)c3c2)-c2cc(C(C)(C)C)ccc2-7)c2ccc(C(C)(C)C)cc62)-c2ccc(C(C)(C)C)cc2-5)cc1)[C@@H](C)O)C(C)C)C(N)=O` [Pc 4b], for which, in the data set “Spectroscopic studies”, the “Stokes' Shift” value is given as 4 nm, the ε was 4.85 M⁻¹ cm⁻¹, the “фF (fluorescence quantum yield)” value is 0.10 and the Emission was 681 nm. For the same molecule, the Absorption in the data set “Spectroscopic studies” (Q band) is listed as 677 nm.
For `[Zn+2].c1ccc2c(c1)-c1nc-2nc2[n-]c(nc3nc([n-]c4nc(n1)-c1ccccc1-4)-c1ccccc1-3)c1ccccc21` [ZnPc], the “Фf (fluorescence quantum yield) of the reference” value in data set [1] is 0.17.
